Positions count from the first letter of the chain named. In names and notes the source's numbering stands.
T1: endogenous 14-3-3 (all isoforms included), P27348
T1 chain: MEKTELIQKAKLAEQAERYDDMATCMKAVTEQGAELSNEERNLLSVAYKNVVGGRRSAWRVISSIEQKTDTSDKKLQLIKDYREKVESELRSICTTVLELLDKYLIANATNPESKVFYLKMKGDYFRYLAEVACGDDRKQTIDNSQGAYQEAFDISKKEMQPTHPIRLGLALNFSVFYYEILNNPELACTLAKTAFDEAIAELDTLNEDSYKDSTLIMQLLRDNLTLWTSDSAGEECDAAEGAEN

B1: IRSp53-FLAG (wild type), natively phosphorylated, Q9UQB8-4 S452A; S453A; S454A; T455A (protein)
chain: MSLSRSEEMHRLTENVYKTIMEQFNPSLRNFIAMGKNYEKALAGVTYAAKGYFDALVKMGELASESQGSKELGDVLFQMAEVHRQIQNQLEEMLKSFHNELLTQLEQKVELDSRYLSAALKKYQTEQRSKGDALDKCQAELKKLRKKSQGSKNPQKYSDKELQYIDAISNKQGELENYVSDGYKTALTEERRRFCFLVEKQCAVAKNSAAYHSKGKELLAQKLPLWQQACADPSKIPERAVQLMQQVASNGATLPSALSASKSNLVISDPIPGAKPLPVPPELAPFVGRMSAQESTPIMNGVTGPDGEDYSPWADRKAAQPKSLSPPQSQSKLSDSYSNTLPVRKSVTPKNSYATTENKTLPRSSSMAAGLERNGRMRVKAIFSHAAGDNSTLLSFKEGDLITLLVPEARDGWHYGESEKTKMRGWFPFSYTRVLDSDGSDRLHMSLQQGKAAAAGNLLDKDDLAIPPPDYGAASRAFPAQTASGFKQRPYSVAVPAFSQGLDDYGARSMSSGSGTLVSTV
B2: IRSp53-FLAG (wild type), natively phosphorylated, Q9UQB8-4 T360A (protein)
chain: B1 chain with T360A, A452S, A453S, A454S, A455T
B3: IRSp53-FLAG (wild type), natively phosphorylated, Q9UQB8-4 S366A (protein)
chain: B1 chain with S366A, A452S, A453S, A454S, A455T
B4: IRSp53-FLAG (wild type), natively phosphorylated, Q9UQB8-4 T340A (protein)
chain: B1 chain with T340A, A452S, A453S, A454S, A455T
B5: IRSp53-FLAG (wild type), natively phosphorylated, Q9UQB8-4 T340A; T360A (protein)
chain: MSLSRSEEMHRLTENVYKTIMEQFNPSLRNFIAMGKNYEKALAGVTYAAKGYFDALVKMGELASESQGSKELGDVLFQMAEVHRQIQNQLEEMLKSFHNELLTQLEQKVELDSRYLSAALKKYQTEQRSKGDALDKCQAELKKLRKKSQGSKNPQKYSDKELQYIDAISNKQGELENYVSDGYKTALTEERRRFCFLVEKQCAVAKNSAAYHSKGKELLAQKLPLWQQACADPSKIPERAVQLMQQVASNGATLPSALSASKSNLVISDPIPGAKPLPVPPELAPFVGRMSAQESTPIMNGVTGPDGEDYSPWADRKAAQPKSLSPPQSQSKLSDSYSNALPVRKSVTPKNSYATTENKALPRSSSMAAGLERNGRMRVKAIFSHAAGDNSTLLSFKEGDLITLLVPEARDGWHYGESEKTKMRGWFPFSYTRVLDSDGSDRLHMSLQQGKSSSTGNLLDKDDLAIPPPDYGAASRAFPAQTASGFKQRPYSVAVPAFSQGLDDYGARSMSRNPFAHVQLKPTVTNDRCDLSAQGPEGREHGDGSARTLAGR

Target: T1, endogenous 14-3-3 (all isoforms …)
Assay: coimmunoprecipitation (quantified western blot)
Conditions: chain shown with the change; serum-starved cells; parent: est. 1.0; read off a plot

ratio to parent	Binder
0.98	B1
0.12	B2
0.62	B3
0.1	B4
0.05	B5
